Columns and labels:
[1] = target: human Dectin-1 expressed on cells (isoform not given) (human) (UniProt Q9BXN2)
[2] = target: human Dectin-1 expressed on cells (isoform not given) (human) (UniProt Q9BXN2); test: flow cytometry on human monocytes
[3] = target: T1, human Dectin-1 isoform A (human) (UniProt Q9BXN2); test: flow cytometry on HEK-Blue hDectin-1a cells
T1 sequence: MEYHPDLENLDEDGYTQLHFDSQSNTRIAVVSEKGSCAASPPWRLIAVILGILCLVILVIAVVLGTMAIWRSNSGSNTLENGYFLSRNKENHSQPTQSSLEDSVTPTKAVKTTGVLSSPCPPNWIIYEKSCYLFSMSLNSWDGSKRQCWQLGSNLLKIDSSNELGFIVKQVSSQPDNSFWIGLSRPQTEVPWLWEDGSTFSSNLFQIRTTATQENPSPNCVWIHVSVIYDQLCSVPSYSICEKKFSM

[4] = target: T1, human Dectin-1 isoform A (human); test: flow cytometry on HEK293F hDectin-1a FL cells
[5] = target: human Dectin-1 expressed on cells (isoform not given) (human) (UniProt Q9BXN2); test: flow cytometry on human monocytes (summary table)
[6] = target: T1, human Dectin-1 isoform A (human); test: flow cytometry on HEK-Blue hDectin-1a cells (summary table)
[7] = target: T1, human Dectin-1 isoform A (human); test: flow cytometry on HEK293F hDectin-1a FL cells (summary table)

B1: commercial anti-Dectin-1 antibody 15E2 (antibody, from a related filing, V domains shown)
VH: QWQLQQSGAELARPGASWKMSCKASGYTFTTYTMHWWKQRPGQGLEWIGYINPSSGYTNYNQKFKDKATLTADKSSSTASMQLSSLTSEDSAWYYCARERAVLVPYAMDYWGQGTSVTVSS
VL: QIVLTQSPAVMSASPGEKWTITCTASSSLSYMHWFQQKPGTSPKLWLYSTSILASGVPTRFSGSGSGTSYSLTISRMEAEDAATYYCQQRSSSPFTFGSGTKLEIK
With B1 the IFNg secretion in PBMC, immobilized antibody (fold change to isotype) [1] was 1.6, the IL6 secretion in PBMC, immobilized antibody (fold change to isotype) [1] was 2.6 and the TNFa secretion in PBMC, immobilized antibody (fold change to isotype) [1] was 3. It also gave an EC50 [2] of 0.6 nM, an EC50 [3] of 1.2 nM and an EC50 [4] of 1.4 nM. The EC50 [5] was 0.6 nM, the EC50 [6] was 1.2 nM and the EC50 [7] was 1.4 nM.
